US20110223176A1 (AbbVie / Abbott, published 2011)
Where a chain is given by its changes, count along the chain named. Read-outs that look alike come from different tables or passages of the source.

T1: human BSG2 (basigin isoform 2) on the cell surface (human, UniProt P35613 140-385)
T1 construct: Presented on stably transfected BAF3 cells or endogenously on human tumor cell lines (HepG2, MiaPaCa-2, DoHH-2); also called hBSG2; CD147
T1 sequence: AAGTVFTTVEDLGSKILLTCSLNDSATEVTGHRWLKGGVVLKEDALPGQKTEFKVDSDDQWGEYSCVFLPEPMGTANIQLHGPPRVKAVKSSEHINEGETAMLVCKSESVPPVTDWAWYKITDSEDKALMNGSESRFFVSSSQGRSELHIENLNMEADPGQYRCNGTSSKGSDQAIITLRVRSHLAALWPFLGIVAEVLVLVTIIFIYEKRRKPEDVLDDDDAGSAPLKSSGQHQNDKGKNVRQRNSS

T2: purified recombinant human BSG2 extracellular domain (human, UniProt P35613 22-325)
T2 construct: also called Human BSG2 ECD
T2 sequence: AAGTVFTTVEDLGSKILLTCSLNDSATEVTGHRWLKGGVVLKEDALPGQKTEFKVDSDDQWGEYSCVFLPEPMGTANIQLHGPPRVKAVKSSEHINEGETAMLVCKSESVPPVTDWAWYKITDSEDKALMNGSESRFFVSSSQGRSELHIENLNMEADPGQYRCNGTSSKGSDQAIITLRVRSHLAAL

B1: humanized 6A11-3A3 antibody h3A3-8 (VH.1/VL.1a) (antibody, V domains shown)
VH: EVQLVESGGGLVQPGGSLRLSCAASGFTFSNFWMDWVRQAPGKGLEWVGGIRLKSYNYATHYAESVKGRFTISRDDSKNTAYLQMNSLRAEDTAVYYCTRWDGAYWGQGTLVTVSS
VL: DIQMTQSPSSLSASVGDRVTITCKASQDVSTDVAWYQQKPGKSPKLLIYSASYRYTGVPSRFSGSGSGTDFTLTISSLQPEDIATYYCQQHYSTPFTFGQGTKLEIK
B2: humanized 6A11-3A3 antibody h3A3-6 (VH.1a/VL.1) (antibody, IgG1, V domains shown)
VH: B1 VH with V48I, G49A, N79S, A81V, R100D
VL: B1 VL with S43A
notes: IgG1
B3: humanized 6A11-3A3 antibody h3A3-9 (VH.1a/VL.1a) (antibody, V domains shown)
VH: B1 VH with V48I, G49A, N79S, A81V, R100D
VL: B1 VL
B4: humanized 6A11-3A3 antibody h3A3-12 (VH.1a/VL.1b) (antibody, IgG1, V domains shown)
VH: B1 VH with V48I, G49A, N79S, A81V, R100D
VL: B1 VL with Q3V
notes: IgG1
B5: humanized 6A11-3A3 antibody h3A3-11 (VH.1/VL.1b) (antibody, V domains shown)
VH: B1 VH
VL: B1 VL with Q3V
B6: humanized 6A11-3A3 antibody h3A3-5 (VH.1/VL.1) (antibody, V domains shown)
VH: B1 VH
VL: B1 VL with S43A
B7: mouse anti-human BSG2 antibody 1F4-2C1 with mouse IgG2a isotype (antibody, V domains shown)
VH: EVKLEESGGGLVQPGGSMKLSCVASGFTFSNFWMDWVRQSPEKGLEWVAEIRLKSTNYATHYAESVKGRFTISRDDSKSSVYLQMNNLRAEDTGIYYCTATSTGYWGQGTTLTVSS
VL: SIVMTQSPKILLVSAGDRVTITCKASQSVSNDVAWYQQKPGQSPKLLIYYASNRYTGVPDRFTGSGYGTDFTFTISTVQAEDLAVYFCQQDYSSPYTFGGGTKLEIK
B8: mouse anti-human BSG2 monoclonal antibody SZ66-2D2-2A1 (antibody, mouse IgG2a, kappa, V domains shown)
VH: QVQLQQPGAEIVRPGASVKLSCKASGYTFTDYWMNWVKLRPGQGLEWIGIIDPSDSYASYNQKFKGKATLTVDESSSTAYMQLSSLTSEDSAVYYCARKSYYGGNYYYAMDYWGQGTSVTVSS
VL: EIVLTQSPALMAASPGEKVTITCSVSSSINSINLHWYRQKSETSPKPWIYGTSNLASGVPVRFSGSGSGTSYSLTISSMEAEDAATYYCQQWSSYPLTFGAGTKLELKR
notes: Hybridoma antibody, mouse IgG2a/kappa
B9: chimeric antibody 6A11-3A3 (human IgG1 constant regions) (antibody, V domains shown)
VH: EVKLEESGGGLVQPGGSMKLSCVASGFTFSNFWMDWVRQSPEKGLEWIAGIRLKSYNYATHYAESVKGRFTISRDDSKSSVYLQMNNLRAEDTGIYYCTDWDGAYWGQGTLVTVSA
VL: DIVMTQSHKFMSTSVGDRVSITCKASQDVSTDVAWYQQKPGQSPKLLIYSASYRYTGVPDRFTGSGSGTDFTFTISSVQAEDLAVYYCQQHYSTPFTFGSGTKLEIK

Assays:
[1] = target: T1, human BSG2 (basigin isoform 2) on the …; assay: cell-based ECL (MSD) binding on cells expressing human BSG2
Protocol: Cells were plated at 25,000 cells/well in 25 μl PBS using 96 well MSD high binding plates (MSD, catalogue no. L11XB-3), and incubated at 37° C. for 1 hour. 25 μl/well of blocking solution (30% serum in PBS) was added to the plates for 30 minutes at room temperature with mild agitation. Plates were then incubated with 25 μl/well of BSG2 antibodies (10 μg/ml) diluted in assay buffer (10% serum in PBS) for 1 hour at room temperature with mild agitation, and then washed 3× with PBS. Goat anti-mouse or anti-human IgG sulfotag was added at 1 μg/ml for 1 hour with mild agitation, and plates were washed 3× with PBS. After the final wash, plates were incubated with 2×MSD surfactant-free read buffer (catalogue no. R92TD-2) and the signal was detected on a MSD SECTOR Imager 6000. Data were analyzed using Graphpad Prism software and EC₅₀ values were reported.
Select humanized variants were also tested for their functionality using ADCC and cell viability assays (described in Examples 1.6 and 1.7).

[2] = target: T1, human BSG2 (basigin isoform 2) on the …; assay: cell-based or functional assay
[3] = target: T1, human BSG2 (basigin isoform 2) on the …; assay: receptor binding assay, Eu-labeled antibody on cells expressing human BSG2
Protocol: (§1) Cell lines expressing BSG2 were harvested and washed once in assay buffer (PBS, 0.1% BSA, 0.02% Na Azide, 10 mM EDTA) and resuspended to 5×10⁶ cells per mL. Serial 1:2 dilutions of ⁺³Eu-labeled anti-BSG2 antibody stock in assay buffer were made for final concentrations ranging from 1.6×10⁻⁸-7.7×10⁻¹² M, and a 4 mg/mL solution of unlabeled anti-BSG2 antibody was also prepared. To 96 well round bottom plates, 25 μl of ⁺³Eu-labeled antibody dilutions were added to 25 μl buffer (total counts), or 25 μl of unlabeled antibody were added to 25 μl buffer (background counts). 50 μl of cells at 2.5×10⁵ cells per well were then added to all samples, mixed gently, and incubated on ice for 1 hour. Cell bound antibody was then separated from unbound antibody by transferring 20 μL of the reaction mixture to Acrowell 96 well filter plates (Pall PN 5020), centrifuged for 5 min (2200 rpm), washed 3× with 150 μL cold assay buffer, and centrifuged for 5 min. Signal was determined by incubating samples with 150 μL/well of enhancement buffer and read using Envision. The specific counts were determined by subtracting the background counts (cells+labeled antibody+excess cold antibody) from the corresponding total counts (cells+labeled antibody) for each antibody concentration. The labeled antibody concentration versus total counts was analyzed using Graphpad Prism 4 to calculate Kd and Bmax values.

[4] = target: T1, human BSG2 (basigin isoform 2) on the …; assay: cell-based or functional assay; remark: listed apart in the source
[5] = target: T1, human BSG2 (basigin isoform 2) on the …; assay: flow cytometry (FACS) on HepG2 hepatocellular carcinoma cells (cell-surface BSG2)
Protocol: (§2) Stable cell lines overexpressing cell-surface BSG2 or human tumor cell lines were harvested from tissue culture flasks, washed three times and resuspended in phosphate buffered saline (PBS) containing 1% bovine serum albumin and 1 mM CaCl₂ (FACS buffer). 5×10⁵ cells were incubated with antibodies at various concentrations in FACS buffer for 60 minutes on ice. Cells were washed twice and the bound murine monoclonal antibody was detected with a goat Fab′2 anti-mouse IgM+IgG+IgA (H+L) R-phycoerythrin-conjugated antibody (Southern Biotechnology Associates, Inc., Birmingham, Ala., Catalog No. 1012-08) diluted 1:500. Following incubation on ice (4° C., 60 minutes), cells were washed three times and resuspended in FACS buffer. Fluorescence was measured using a Becton Dickinson FACSCalibur-HTS (Becton Dickinson, San Jose, Calif., US). Data were analyzed using Graphpad Prism software and EC₅₀ values were reported as the concentration of antibody to achieve 50% of maximal BSG2 antibodies binding to BSG2 expressing cells.

[6] = target: T1, human BSG2 (basigin isoform 2) on the …; assay: cell-based ECL (MSD) binding on whole cells expressing human BSG2
[7] = target: T1, human BSG2 (basigin isoform 2) on the …; assay: receptor binding assay, Eu-labeled antibody on cells expressing human BSG2; remark: listed apart in the source
Protocol: as §1
BSG2 antibody binding activities against whole cells expressing human or cynomolgus monkey BSG2 were assessed by ECL using MSD technology (described in Example 1.3) and the receptor binding assay (described in Example 1.4) and are shown in Table 11.

[8] = target: T2, purified recombinant human BSG2 …; assay: SPR (Biacore), mAb captured by anti-mouse Fc, BSG2 ECD injected, 25 C
Protocol: Binding of BSG2 antibodies to a purified recombinant BSG2 extracellular domain (ECD) was determined by surface plasmon resonance-based measurements with a Biacore® instrument (either a Biacore 2000, Biacore 3000, or Biacore T100; GE Healthcare, Piscataway, N.J., US). The assay format for mAb affinity analysis was Fc-based capture via immobilized anti-Fc IgG. A standard amine coupling protocol was employed to immobilize Fc-specific IgG via primary amines to the carboxy-methyl (CM) dextran surface of CMS sensorchips. For the study of mouse anti-human BSG2 mAbs, anti-mouse Fc was used as the immobilized capture reagent. An automated protocol, available on the Biacore 2000, was used to immobilize 8000-10000RU of capture reagent in all 4 flowcells of the sensorchip. Binding was recorded as a function of time and kinetic rate constants were calculated. In this assay, on-rates as fast as 10⁷M⁻¹ s⁻¹ and off-rates as slow as 10⁻⁵ s⁻¹ can be measured.
Briefly, the CM-dextran surfaces were activated by freshly prepared 1:1 […] 3-(N,N-dimethylamino)propyl-N-ethylcarbodiimide (EDC). Then the anti-Fc IgG capture reagent (20 μg/ml in 10 mM sodium acetate, pH 4.5) was applied to the surface followed by deactivation of the surface and blocking of the residual reactive sites with 1M ethanolamine (pH 8.5). The running buffer employed was PBS-PB [1×PBS (Sigma P3813), pH 7.4, 0.005% P20 surfactant, 0.1 mg/ml BSA (Sigma-A7906)] and the assay temperature was 25° C. All reagents were diluted into running buffer to the specified concentrations. Each experimental cycle consisted of the following steps: (1) anti-BSG2 mAbs at 0.5 to 1 μg/ml were captured in flowcells 2, 3 or 4 to a level of 100-120RU. All measurements were referenced against flowcell 1 which had no captured anti-BSG2 mAb; (2) human BSG2 ECD was injected through all 4 flowcells, 240 μl at 80 μl/min. After the antigen injection, dissociation was monitored for 600 seconds at 80 μl/min; and (3) the anti-Fc capture surface was regenerated with 10 mM glycine, pH 1.5.
The BSG2 antibody binding affinities were determined by the BIACORE technology as described in Example 1.2. Table 10 represents the antibody binding kinetics against human and cynomolgus monkey BSG2 extracellular domain (ECD).

[9] = target: T1, human BSG2 (basigin isoform 2) on the …; assay: flow cytometry (FACS) on BAF3 cells expressing human BSG2
Protocol: as §2

| Binder | EC50 [1] [nM] | ADCC assay (EC50 ng/ml of % specific lysis), HepG2 hepatocellular [2] [ng/mL] | Cross-linking assay (% viability, Cmax: 125 ng/ml), MiaPaCa pancreatic cells [2] [% viability] | further results |
| --- | --- | --- | --- | --- |
| B1 | 6.9 |  |  |  |
| B2 | 2.05 | 16.4 | 47.9 | Kd [3]: 5.2 nM |
| B3 | 1.35 |  |  |  |
| B4 | 0.96 | 9.3 | 48.8 | Kd [3]: 2.3 nM |
| B5 | > 100 |  |  |  |
| B6 | > 100 |  |  |  |
| B7 |  |  |  | CDC assay (% killing at 10 µg/ml Ab), MiaPaCa-2 pancreatic cancer cells [4]: 87 % killing |
| B8 |  |  |  | EC50 [5]: 0.17 nM; CDC assay (% killing at 10 µg/ml Ab), MiaPaCa-2 pancreatic cancer cells [4]: 84 % killing; EC50 [6]: 0.3 nM; Kd [7]: 0.15 nM; Kd [8]: 47 nM; koff [8]: 0.019 s⁻¹; kon [8]: 410000 M⁻¹ s⁻¹; EC50 [9]: 0.14 nM |
| B9 |  | 12.5 | 55.5 | ADCC assay (EC50 ng/ml of % specific lysis), HepG2 hepatocellular cancer cells [4]: 7.3 ng/mL |
